What was measured:
[1] = target: T1, mouse APJ receptor expressed on CT26 cells (mouse, UniProt Q9WV08 1-377); test: binding to the surface of CT26 cells
T1 construct: whole, on cells
T1 sequence (looked up): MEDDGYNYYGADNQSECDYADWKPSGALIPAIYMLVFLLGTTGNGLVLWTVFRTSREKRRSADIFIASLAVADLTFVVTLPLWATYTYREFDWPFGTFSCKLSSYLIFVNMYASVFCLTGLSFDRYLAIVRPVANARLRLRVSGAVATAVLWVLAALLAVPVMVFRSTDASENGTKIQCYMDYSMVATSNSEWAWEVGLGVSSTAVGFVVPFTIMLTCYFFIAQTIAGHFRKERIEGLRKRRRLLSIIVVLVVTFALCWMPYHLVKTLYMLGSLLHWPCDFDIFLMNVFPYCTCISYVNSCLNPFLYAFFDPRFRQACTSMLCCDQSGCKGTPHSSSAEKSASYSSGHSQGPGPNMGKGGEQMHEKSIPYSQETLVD

[2] = target: T2, apelin (APJ) receptor on APJ-expressing cells (Homo sapiens (Human), UniProt P35414 1-380); test: method not stated (Example 2)
T2 construct: also called apelin (APJ)-expressing cells; target cells
T2 sequence: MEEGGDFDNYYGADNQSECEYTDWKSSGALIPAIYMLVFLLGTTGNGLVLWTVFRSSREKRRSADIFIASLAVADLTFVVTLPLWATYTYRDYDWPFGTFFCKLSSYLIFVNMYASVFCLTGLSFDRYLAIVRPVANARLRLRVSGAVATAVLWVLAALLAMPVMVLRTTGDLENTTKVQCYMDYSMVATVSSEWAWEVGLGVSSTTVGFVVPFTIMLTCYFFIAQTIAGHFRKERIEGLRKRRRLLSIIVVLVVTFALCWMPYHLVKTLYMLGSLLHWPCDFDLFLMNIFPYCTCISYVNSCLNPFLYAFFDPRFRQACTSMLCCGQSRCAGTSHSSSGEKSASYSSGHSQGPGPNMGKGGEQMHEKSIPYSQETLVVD

[3] = target: T2, apelin (APJ) receptor on APJ-expressing …; test: cell-based or functional assay

B1: VHH-21 (VHH)
VHH: QVQLQESGGGLVQAGGSLRLSCAASGSISVGYLMGWYRQAPGKERELVAGINYGSNTYYADSVKGRFTISRDNAKNTVYLQMNSLKPEDTAVYYCAASQRRAYAARIDLFSYHTYWGQGTQVTVSS
notes: Nanobody; VHH-21-Fc (aglycosylated human IgG1 Fc) was used in vivo; also called negative allosteric modulator VHH-21
[1]
  Kd: ~100 nM

B2: VHH-22 (VHH)
VHH: QVQLQESGGGLVQAGGSLRLSCAASGNIFRGRVMGWYRQAPGKEREFVAGIDYGASTNYADSVKGRFTISRDNAKNTVYLQMNSLKPEDTAVYYCAARLSERRRLEGYWSAVHVYWGQGTQVTVSS
notes: Nanobody
[2]
  Kd: 13 nM
[3]
  Fold suppression (saturated), β-arrestin signaling: 5.9 fold

B3: VHH-23 (VHH)
VHH: QVQLQESGGGLVQAGGSLRLSCAASGNISPFRAMGWYRQAPGKEREFVAAINTGAITNYADSVKGRFTISRDNAKNTVYLQMNSLKPEDTAVYYCAASCRAYASRIDLFSYHTYWGQGTQVTVSS
notes: Nanobody
[2]
  Ki: 39 nM
[3]
  Fold suppression (saturated), β-arrestin signaling: 8.5 fold
